Assay: yeast display, Sf9 membrane polyspecificity reagent, FACS + sequencing; frameworks hold sequencing errors
Summary of the method: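 After 36–48 hours of galactose induction, yeast (Saccharomyces cerevisiae BJ5465) displaying a synthetic nanobody library were stained at 4 °C for 1 hour with 10% biotinylated, detergent-solubilized Sf9 membrane reagent. Streptavidin microbeads enriched the stained cells before FACS sorting into low and high (top ~1%) gates on anti-HA and streptavidin fluorescence. Each clone's polyreactivity label reflects its gate of origin.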
With “QVQLVESGGGLVQAGGSLRLSCAASGSTFPGNALGSYRQAPGKERELVAAIRDRGTSTYYADSVKGRFTISRDNAKNTFYLQMNSLKPEDTAVYYCAASSSNKEYDYWGQGTQVTVSS” the “polyreactivity (PSR sort gate)” value was “high polyreactivity”. For “QVQLVESGGGLVQAGGSLRLSCAASGSTFPGNAMGWYRQAPGKERELVAAINWSGDSTYYADSVKGRFTISRDNAKNTVYLQMNSLKPEDTAVYYCAAYGDGYYYWGQGTQVTVSS”, the “polyreactivity (PSR sort gate)” value was “low polyreactivity”. In the case of “QVQLVESGGGLVQAGGSLRLSCAASGSTFPGNAMGWYRQAPGKERELVASISGGGDSTYYADSVKGRFTISRDNAKNTVYLQMISLKPEDTAVYYCAVDIDSNSGTRDYWGQGTQVTVSS”, the “polyreactivity (PSR sort gate)” value is reported as “low polyreactivity”. With “QVQLVESGGGLVQAGGSLRLSCAASGSTFPGYAMGWYRQAPGKERELVAAGGSTYYADSVKGRFTISRDNAKNTVYLQMNSLKPEDTAVYYCAATWGSVQKGTYYYWGQGTQVTVSS” the “polyreactivity (PSR sort gate)” value was “low polyreactivity”. With “QVQLVESGGGLVQAGGSLRLSCAASGSTFPHYTMGWYRQAPGKERELVAVISRSGRTYYADSVKGRFTISRDNAKNTVYLQMNSLKPEDTAVYYCAVLVGRLVWSYNHWGQGTQVTVSS” the “polyreactivity (PSR sort gate)” value was “high polyreactivity”. In the case of “QVQLVESGGGLVQAGGSLRLSCAASGSTFPKYAMGWYRQAPGKERELVAVITSGGSTYYADSVMGRFTISRDNAKNTVYLQMNSLKPEDTAVYYCAARKYRRFDYWGQGTQVTVSS”, the “polyreactivity (PSR sort gate)” value is reported as “high polyreactivity”. For “QVQLVESGGGLVQAGGSLRLSCAASGSTFPKYGMGWYRQAPGKESEFVARINWNGGGTYYADSVKGRFTISRDNAKNTVYLQMNSLKPEDTAVYYCNARKRGARFILGYDYWGQGTQVTVSS”, the “polyreactivity (PSR sort gate)” value was “low polyreactivity”. With “QVQLVESGGGLVQAGGSLRLSCAASGSTFPLNAMGWYRQAPGKESEFLDAISYRGSSTYYADSVKGRFTISRDNAKNTVYLQMNSLKPEDTAVYYCSANPNTYYYRRGYDYWGQGTQVTVSS” the “polyreactivity (PSR sort gate)” value was “high polyreactivity”. In the case of “QVQLVESGGGLVQAGGSLRLSCAASGSTFPLYAMGWYRPAPGKEREFVAAINRSTGTTYYADSVKGRFTISRDNAKNTVYLQMNSLKPEDTAVYYCAARVYYRTVLGGYYYWGQGTQVTVSS”, the “polyreactivity (PSR sort gate)” value is reported as “low polyreactivity”. For “QVQLVESGGGLVQAGGSLRLSCAASGSTFPLYTMGWYRQAPGKERELVAAINYGGTSTYYADSVKGRFTISRDNAKNTVYLQMNSLKPEDTAVYYCKQFVPGRYYWGQGTQVTVSS”, the “polyreactivity (PSR sort gate)” value was “high polyreactivity”. For “QVQLVESGGGLVQAGGSLRLSCAASGSTFPPNAMGWYRQAPGKERELVAAISFSSGRTYYADSVKGRFTISRDNAKNTVYLQMNSLKPEDTAVYYCAADHGYWGQGTQVTVSS”, the “polyreactivity (PSR sort gate)” value was “low polyreactivity”. In the case of “QVQLVESGGGLVQAGGSLRLSCAASGSTFPPYAMGWYRQAPGKERELVAAITASGGRTYYADSVKGRFTLSRDNAKNTVYLQMNSLKPEDTAVYYCAALRGSTYDYWGQGTQVTVSS”, the “polyreactivity (PSR sort gate)” value is reported as “high polyreactivity”. For “QVQLVESGGGLVQAGGSLRLSCAASGSTFPPYGMGWYRQAPGKERELVASITSGGSTNYADSVKGRFTISRDNAKNTVYLQMNSLKPEDTAVYYCNADLHSHYDYWGQGTQVTVSS”, the “polyreactivity (PSR sort gate)” value was “low polyreactivity”. For “QVQLVESGGGLVQAGGSLRLSCAASGSTFPRNAMGWYRQAPGKERELVAVITGSGGSTYYADSVKGRFTISRDNAKNTVYLQMNSLKPEDTAVYYCNARPTRRTRYDSWGQGTQVTVSS”, the “polyreactivity (PSR sort gate)” value was “high polyreactivity”. In the case of “QVQLVESGGGLVQAGGSLRLSCAASGSTFPRYAMGWYIPAPGNERELVAAISSGGSTYYADSVKGRFTISRDNAKNTVYLQMNSLKPEDTAVYYCNARRSRSRYDYWGQGTQVTVSS”, the “polyreactivity (PSR sort gate)” value is reported as “high polyreactivity”. With “QVQLVESGGGLVQAGGSLRLSCAASGSTFPRYAMGWYRQAPGKERELVASITSDGGSTYYADSVKGRFTISRDNAMNTVYLQLNSLKPEDTAVYYCNKVTYRGYRRYGYWGQGTQVTVSS” the “polyreactivity (PSR sort gate)” value was “high polyreactivity”. With “QVQLVESGGGLVQAGGSLRLSCAASGSTFPRYGMGWYRQAPGKERELVATITNGAITYYADSVKGRFTISRDNAKNTVYLQMNSLKPEDTAVYYCAARHFQVPDYFPEYHYWGQGTQVTVSS” the “polyreactivity (PSR sort gate)” value was “low polyreactivity”. With “QVQLVESGGGLVQAGGSLRLSCAASGSTFPSYAMGWYRQAPGKERELVAAINSGGGTNYADSVKGRFTISRDNAKNTVYLQMNSLKPEDTAVYYCNTDILSIYAEPYYFTDVDYWGQGTQVTVSS” the “polyreactivity (PSR sort gate)” value was “low polyreactivity”. With “QVQLVESGGGLVQAGGSLRLSCAASGSTFPSYAMGWYRQAPGKERELVAAISRSGGSTYYADSVKGRFTISRDNAKNTVYLQMNSLKPEDTAVYYCAARGHLRYESDYWGQGTQVTVSS” the “polyreactivity (PSR sort gate)” value was “high polyreactivity”. For “QVQLVESGGGLVQAGGSLRLSCAASGSTFPSYAMGWYRQAPGKERELVAAITNGGSTTYADSVKGRFTISRDNAKNTVYIQMNSLKPEDTAVYYCAARYYYYYYYIRRDYWGQGTQVTVSS”, the “polyreactivity (PSR sort gate)” value was “low polyreactivity”. In the case of “QVQLVESGGGLVQAGGSLRLSCAASGSTFPSYVMGWYRQAPGKEREMVAAISSSGGRTYYADSVKGRFTISRDNAKNTVYLQMNSLKPEDTAVYYCAAKRGPLVNDHQFWGQGTQVTVSS”, the “polyreactivity (PSR sort gate)” value is reported as “high polyreactivity”. In the case of “QVQLVESGGGLVQAGGSLRLSCAASGSTFPTNTMGWYRQAPGKERELVATIRKSSGRTYYADSVKGRFTISRDNAKNTVYLQMNSLKPEDTAVYYCNARRYSGALRYDYWGQGTQVTVSS”, the “polyreactivity (PSR sort gate)” value is reported as “high polyreactivity”. For “QVQLVESGGGLVQAGGSLRLSCAASGSTFPTYAMGWYRQAPGKERELVAAITSGSGTNTYYADSVKGRFTISRDNAKNTVYLQMNSLKPEDTAVYYCAKSFRKKYGWGQGTQVTVSS”, the “polyreactivity (PSR sort gate)” value was “high polyreactivity”. In the case of “QVQLVESGGGLVQAGGSLRLSCAASGSTFPTYAMGWYRQAPGKERELVADITWSGGSTYYADSVKGRFTISRDNAKNTVYLQMNSLKPEDTAVYYCNAAHRKGMYYWGQGTQVTVSS”, the “polyreactivity (PSR sort gate)” value is reported as “high polyreactivity”. In the case of “QVQLVESGGGLVQAGGSLRLSCAASGSTFPTYGMGWYRQAPGKEREFVARINWNGGGTYYADSVKGRFTISRDNAKNTVYLQMNSLKPEDTAVYYCNARKRGARFILGYDYWGQGTQVTVSS”, the “polyreactivity (PSR sort gate)” value is reported as “low polyreactivity”. For “QVQLVESGGGLVQAGGSLRLSCAASGSTFPVNAMGWYIQAPGKERELVARIRGSGGSTYYADSVKGRFTISRDNAKNTVYLQMNSLKPEDTAVYYCNADPVRSGLDYWGQGTQVTVSS”, the “polyreactivity (PSR sort gate)” value was “high polyreactivity”. With “QVQLVESGGGLVQAGGSLRLSCAASGSTFPVNAMGWYRQAPGKERELVAAISSRGSSTYYADSVKGRFTISRDNAKNTVYLQMNSLKPVDTAVYYCAAPQRYPRFYYWGQGTQVTVSS” the “polyreactivity (PSR sort gate)” value was “high polyreactivity”. In the case of “QVQLVESGGGLVQAGGSLRLSCAASGSTFPVNAMGWYRQAPGKERELVAAISSTGTSTYYADSVKGRFTISRDNAKNTVYLQMNSLKPEDTAGYYCAAETWVWGYVLYDYWGQGTQVTVSS”, the “polyreactivity (PSR sort gate)” value is reported as “high polyreactivity”. For “QVQLVESGGGLVQAGGSLRLSCAASGSTFPVNAMGWYRQAPGKEREMVASITWGDGSTYYADSVKGRFTISRDNAKNTVYLQMNSLKPEDTADYYCNKDFFYGYDAASYRPEYDYWGQGTQVTVSS”, the “polyreactivity (PSR sort gate)” value was “low polyreactivity”. With “QVQLVESGGGLVQAGGSLRLSCAASGSTFPVNTMGWYRQAPGKERELVAAISWSGGRTYYADSVKGRFTISRDNAKNTVYLQMNSLKPEDTAVYYCAAEWEGTYTTVPDEFNYWGQGTQVTVSS” the “polyreactivity (PSR sort gate)” value was “high polyreactivity”. With “QVQLVESGGGLVQAGGSLRLSCAASGSTFPVYAMGWYIQAPGKERELVAAISYSGTRTYYADSVKGRFTISRDNAKNTVYLQMNSLKPEDTAVYYCAADFEGYGQGYGYWGQGTQVTVSS” the “polyreactivity (PSR sort gate)” value was “low polyreactivity”. For “QVQLVESGGGLVQAGGSLRLSCAASGSTFPVYAMGWYRQAPGKERELVAAITSGGSTNYADSVKGRFTISRDNAKNTVYLQMNSLKPEDTAVYYCNAEDIYRKRDFYHRLYDYWGQGTQVTVSS”, the “polyreactivity (PSR sort gate)” value was “low polyreactivity”. In the case of “QVQLVESGGGLVQAGGSLRLSCAASGSTFPVYAMGWYRQAPGKERELVAAITSGGSTYYADSVKGRFTISRDNAKNTVYLQMNSLKPEDTAVYYCAAEDSSPAYNHWGQGTQVTVSS”, the “polyreactivity (PSR sort gate)” value is reported as “low polyreactivity”. With “QVQLVESGGGLVQAGGSLRLSCAASGSTFPYNAKGWYRQAPGKERELVAAITTRGSTYYADSVKGRFTISRDNAKNTVYLQMNSLNPEESAVYYCANGPSLWYRSSFRGEGDYWGQGTQVTVSS” the “polyreactivity (PSR sort gate)” value was “low polyreactivity”. In the case of “QVQLVESGGGLVQAGGSLRLSCAASGSTFPYNAMGWYIQAPGKERELVAAISSRGGRTYYADSVKGRFSISRDNAKYTVYLQMNSLKPEDTAVYYCAARVVSRKDMNYWGQGTQVTVSS”, the “polyreactivity (PSR sort gate)” value is reported as “high polyreactivity”. With “QVQLVESGGGLVQAGGSLRLSCAASGSTFPYNAMGWYRQAPGKDRELVAAITWRAGRTYYADSVKGRFTISRDNAKNTVYLQMNSLKPEDTAVYYCAKSYQRGVNHYEYWGQGTQVTVSS” the “polyreactivity (PSR sort gate)” value was “high polyreactivity”. With “QVQLVESGGGLVQAGGSLRLSCAASGSTFPYNAMGWYRQAPGKEREFVAAITSDDTTNYADSVKGRFTISRDNAKKTVYLQMNSLKPEDTAVYYCAAEYRYPYLRGAGDYWGQGTQVTVSS” the “polyreactivity (PSR sort gate)” value was “low polyreactivity”. With “QVQLVESGGGLVQAGGSLRLSCAASGSTFPYNAMGWYRQAPGKERELVAAITWRAGRTYYADSVKGRFTSSRDNAKNTVYLQMNSLKPEDTAVYYCAKSYQRGVNHYEYWGQGTQVSVSS” the “polyreactivity (PSR sort gate)” value was “high polyreactivity”. With “QVQLVESGGGLVQAGGSLRLSCAASGSTFPYNAMGWYRQAPGKERELVATIDRGSTTNYADSVKGRFTISRDNAKNTVYLQMNSLKPEDTAVYYCNAKFIWWYEKGGWNVSKYEYWGQGTQVTVSS” the “polyreactivity (PSR sort gate)” value was “low polyreactivity”. With “QVQLVESGGGLVQAGGSLRLSCAASGSTFPYNARGWYRQAPGKETELVAAISSSGGSTYYADSVKGRFTISRDNAKNTVYLQMNSLKPVDTEVYYCNAVLRYSIYPSSSFSYVGYYYWGQGTQVSVSS” the “polyreactivity (PSR sort gate)” value was “high polyreactivity”. With “QVQLVESGGGLVQAGGSLRLSCAASGSTFPYYAMGCYRQAPGKERELVAAISWSDANTYYADSVKGRFTISRDNAKNTVYLQMNSLKPEDTAVYYCAAEPYDRYVPYTGYGLNYWGQGTQVTVSS” the “polyreactivity (PSR sort gate)” value was “low polyreactivity”.

— the nanobody polyreactivity screen of Harvey et al. (2022)
